Test results as given in patent publication US20250059285A1 (ARGENX, published 2025).

Columns and labels:
human Gal10-His [1] = biological target: T1, human Gal10-His (human, UniProt Q05315 2-142, limits assumed); assay: SPR slope against calibrators on captured Gal10-His; sample 2 weeks at 37 C
T1 construct: also called hGal10-His; human Gal10-His tagged; not shown: His tag
T1 sequence: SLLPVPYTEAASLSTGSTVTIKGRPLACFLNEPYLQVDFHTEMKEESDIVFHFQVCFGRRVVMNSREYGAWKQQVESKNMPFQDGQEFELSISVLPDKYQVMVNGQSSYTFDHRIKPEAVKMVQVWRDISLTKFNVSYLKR
Protocol: The binding properties of the seven selected clones following two weeks of temperature stress was analysed using an optimized capture method on a Biacore 3000 instrument. The binding properties of the stressed samples were determined, compared to the calibration point, and expressed as a percentage of Relative Activity (% RA).
Briefly, a capture method was set-up on a Biacore 3000 instrument. For this purpose, a CM5 chip was coated with a monoclonal anti-His antibody (4000 RU), then a fixed concentration of the human Gal10-His (25 μg/mL) was captured on the anti-His chip before receiving duplicate injections of the calibrators, QC samples and temperature stressed samples of each clone. The slope of each injected sample was then calculated using the BIA evaluation software. Concentrations of the QC samples and temperature stressed samples were back-calculated by interpolating the obtained slopes of these samples to the calibrator curve. Obtained values were within +/−20% of the nominal concentration of the tested samples and are expressed as average relative accuracy (avg % RA) (Table 13).

[2] = biological target: T2, cynomolgus Gal10-His (WGS isoform) (cynomolgus); assay: SPR Biacore 3000, hFab on captured cynomolgus Gal10-His (WGS); column head prints (M), the text gives nM
T2 construct: also called cynomolgus antigen
Summary of the method: (§1)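 Fab binding measured by SPR on Biacore 3000, with His-tagged human or cynomolgus (WGS isoform) Gal10 captured on an anti-His antibody-coated CM5 chip. Clones applied either at two concentrations (cynomolgus only) or as a serial dilution.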

[3] = biological target: T2, cynomolgus Gal10-His (WGS isoform); assay: SPR on cynomolgus Gal10-His (WGS isoform)
human Gal10-His [4] = biological target: T1, human Gal10-His; assay: SPR Biacore 3000, purified hFab (2 conc.) on Gal10-His captured by anti-His CM5
human Gal10-His [5] = biological target: T1, human Gal10-His; assay: SPR Biacore 3000, hFab on captured human Gal10-His; column head prints (M), the text gives nM
[6] = biological target: T2, cynomolgus Gal10-His (WGS isoform); assay: SPR Biacore 3000, hFab on cynomolgus Gal10-His (WGS) captured by anti-His CM5
Summary of the method: as §1

human Gal10-His [7] = biological target: T1, human Gal10-His; assay: SPR against T0 reference; sample 4 weeks at 5 C, then nebulized
Protocol: The functional active concentration of the candidates was then assessed by SPR on a Biacore 3000 instrument (FIG. 4). All samples were evaluated with methods meeting the standard qualification criteria. Aliquots were tested at predefined test concentrations against titration curves from reference samples (T0, −80° C. storage) and in the presence of quality control (QC) samples covering a range of 70-130% relative activity (% RA) towards the reference material.
comparison/reference ⁽¹⁾ samples correspond to aliquots kept at +37° C. for 4 weeks ⁽²⁾ samples correspond to aliquots kept at +5° C. for 4 weeks prior to nebulization. In brief, samples were nebulized with an Aerogen Solo active vibrating mesh nebulizer that converted a drug solution into an inhalable aerosol. Three different devices for each time-point were used per clone and results are reported by the device (nebulizer) serial number. In case of device fouling, indicated by longer nebulization times […]

human Gal10-His [8] = biological target: T1, human Gal10-His; assay: SPR Biacore 3000, hFab on captured human Gal10-His
Source text: For this purpose, two approaches were used. In the first, two concentrations of the selected clones were applied on cynomolgus (WGS isoform) Gal10-His capture on a CM5 chip coated with a monoclonal anti-His antibody. The second approach involved a serial dilution that was applied on human or cynomolgus (WGS isoform) Gal10-His in the same set-up.
Further characterization of the cynomolgus cross-reactivity of these clones highlighted g24F02_N53A and g23H09.

human Gal10-His [9] = biological target: T1, human Gal10-His; assay: SPR, overview table of lead Fab candidates
human Gal10-His [10] = biological target: T1, human Gal10-His; assay: SPR Biacore 3000, Fab periplasmic extract on Gal10-His-coated CM5
Protocol: The binding properties of the Fabs (periplasmic extract) to human Gal10-His were analyzed by SPR with a Biacore 3000 instrument. For this purpose, the diluted periplasmic extract was applied on a CM5 chip coated with human Gal10-His. As a positive control, a 20 nM injection of the purified g7B07 clone in the human Fab backbone was included at the beginning and end of the run.
The binding capacity of the Fab periplasmic extract was analyzed by SPR technology using a Biacore 3000. Briefly, diluted periplasmic extracts were injected on CM5 chip coated with 2500 RU of Gal10-His. The amplitude of the binding (Rmax), the dissociation (off-rate) of each clone, as well as the off-rate fold change compared to the controls (g7B07 and g7B07_N53A) are indicated. Clones g20H09 and g23H09 had similar or better off rate compared to the control g7B07 (Table 10). The randomized part of the CDR2 sequence is underlined (Table 10).

B1: g23H09 (Fab) (Fab, V domains shown)
VH: EVQLLESGGGLVQPGGSLRLSCAASGFTFRSYDMSWVRQAPGKGLEWVSAIAQFQHWTYYADSVKGRFTISRDNSKNTLYLQMNSLRAEDTAVYYCATTHGIGTLGFGSWGQGTLVTVSS
VL: SYELTQPLSVSVALGQTARITCDGNNIGSKSAQWYQQKPGQAPVLVIYADEYRPEGIPERFSGSNSGNTATLTISRAQAGDEADYYCQVWDGSAAVFGGGTQLTVL
notes: same VH/VL
% Relative Activity (RA) on Biacore (human Gal10-His [1]): 78%
Kd [2]: 9.9 nM
fold better affinity than g7B07 [3]: 7 fold
Kd (human Gal10-His [4]): 3.9 nM
kd-fold drop vs g7B07 (human Gal10-His [4]): 1.8 fold
koff (human Gal10-His [4]): 0.0025 s⁻¹
kon (human Gal10-His [4]): 650000 M⁻¹ s⁻¹
Kd (human Gal10-His [5]): 5.34 nM
Amplitude R0 [6]: 589 RU
koff [6]: 0.0095 s⁻¹
kon [6]: 950000 M⁻¹ s⁻¹
% relative activity by SPR (human Gal10-His [7]): 119%
fold better affinity than g7B07 (human Gal10-His [8]): 1.7 fold
fold better off-rate than g7B07 (human Gal10-His [8]): 1.9 fold
Kd (human Gal10-His [9]): 5.3 nM
koff (human Gal10-His [9]): 0.0031 s⁻¹
Fold off-rate compared to g7B07 (human Gal10-His [10]): 0.4 fold
koff (human Gal10-His [10]): 0.0027 s⁻¹
